A short description of this data set: yeast display, Sf9 membrane polyspecificity reagent, FACS + sequencing; frameworks hold sequencing errors. The procedure, abridged: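 Nanobodies from a synthetic yeast display library (Saccharomyces cerevisiae BJ5465), induced 36–48 hours with galactose, were stained 1 hour at 4 °C with 10% biotinylated, detergent-solubilized Sf9 membrane reagent, enriched on streptavidin microbeads, then FACS-sorted. Anti-HA (expression) and streptavidin (reagent binding) fluorescence set low and high (top ~1%) gates. Polyreactivity labels come from the gate of origin. Genes were colony-PCR amplified, MiSeq 2 × 250 sequenced and filtered by CDR length.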
For the sequence “QVQLVESGGGIVQAGGSLRLSFAASGSIFEGNALGWYRQEPGKEMEFVAAITKRGGSTYYADSVKGRFTISRDNAKNTVYLQMIWLKPEDTAGYYCAADRSYPRAGRYNYWGQGTQVTVSS”, the “polyreactivity (PSR sort gate)” value was “low polyreactivity”.
The result for “QVQLVESGGGIVQAGGSLRLSSAASGITFGANAMGWYRQAPGKERELVADITWSGGDTYYADSVKGRFTSSRDNAKNSVYLQMNSLKPEDTAVYYCNALQPGLGSPLGEYDYWGQGTQVTVSS” reads “low polyreactivity”.
Under “QVQLVESGGGIVQAGGSLRLSSAASGSTFYAYTMGWYRQAPGKERELVAAISSGGGTYYADSVKGRFTISRDNAKNTVYLQMNSLKPEDTAVYYCNADWRVGRQLSKAKIPYDYWGQGTQVTVSS” stands “low polyreactivity”; under “QVQLVESGGGIVQAGGSLRLSWAASGRIFYAYAMRWSRQAPGKERELVASLSGGGSTDYADSVKGRFTISRDNAKNTVVLQMNSLKPEDTAVYYCAAQYYLYRSRFDYWGQGTLVTVSS”, “high polyreactivity”; under “QVQLVESGGGIVQAGGSLRVSCAASGRIFRRHNMGWYRQAPGKERELVAAITSSGGSTYADSVKGRFTISRDNAQNTVYLQMNSLKPEDTAVYYCATYVAYHRGYRTYDHWGQGTQVTVSS”, “low polyreactivity”.
Turning to “QVQLVESGGGIVQAGGSLRVSFAASGLIFYRYAMGWYRQAPGKERELVAAISSAGSTYYADSVKGRFPISRDNAKNTVYLQMNSLKPEDTAVYYCAKKKLLSVPPRGYVYVYYWGQGTQVTVSS”, the “polyreactivity (PSR sort gate)” value was “high polyreactivity”.
In the case of “QVQLVESGGGIVQAGRSLRLRCAASGFIFRYYTMGWYRQAPGKEREFVAAITSRGGSTYYSDSVKGRFTISRDNAKNTVYLQMNSLKPEDTAVYDCATTRWGYEYWGQGSQVTVSS”, the “polyreactivity (PSR sort gate)” value was “high polyreactivity”.
The result for “QVQLVESGGGIVQAGRSLRLSCAASGSIFDFNAMGWYRQAPGKERELVAAITWGGGSTYYAYSVKGRFTNSRDNEKNTVYLQIKSLKPEDTAVYYCNAAYGRYRYDYWGQGTQVTVSS” reads “low polyreactivity”.
Under “QVQLVESGGGIVQAGVSLRLSCAASGRTFWTNAMGWYRQAPGKERELVAVISTTTGNTYYADSVKGRFTISRDNAKNTVYLQMNSLKPEDTAVYYCNTRTGAFFLSKPYYYWGQGTQVTVSS” stands “low polyreactivity”.
Under “QVQLVESGGGIVQAGVSLRLSCAASGSTFESNAMGWYRQAPGKECELVASISGSGGSTFYADSVKGRFTISRDNAKNTVYLHMNSLKPEDTARYYCAAYKEPYYEESGYWGQVTQVTVSS” stands “low polyreactivity”; under “QVQLVESGGGIVQAGVSLRLSCAASGSTFVRYAMGWYRPAPGKERELVAAISGGGSTSYADSVKGRFTISRDNAKNTVYLQMNSLKPEDTAVYYCAAEKYRWENDAYQYYTFDYWGQGTQVTVSS”, “low polyreactivity”; under “QVQLVESGGGKVQAGGSLRLSCAATGRNFGVYDMGSYRHSPGKERELVAAITARGGSTYYADSVKGRFTISRDNAKNTVYLQMNSLKPEDTAVYYCAASAGSAGHSGGYWGQGTQVTVSS”, “high polyreactivity”.
As for “QVQLVESGGGLDQAGASLRLSCPASGRTFNANVMGWYRQAPGKERELVAAISTGGSTNYADSVKGRFTISRDNAKNTVYLQMNSLKPEDTAVYYCAAAIRVPQGGYYYWGQGTQVTVSS”, the “polyreactivity (PSR sort gate)” value is on record as “low polyreactivity”.
Under “QVQLVESGGGLDQAGGRLRLICAASGNTFRFYTLGWYRQAPGQETEFVAAINSSGRTNYADSVKGRFTISRDNATNTVYLQMNSLKPEDTAVYYCAADYYQRSTFLGVDEYDYWGQGTQVTVSS” stands “low polyreactivity”; under “QVQLVESGGGLDQAGGRLRLSCAASGSTFLLYAMGWYRQAPGKERELVAAIDTGDSTNYADSVKGRFTISRDNAKNTVYLQMNSLKREDTAVYYCNADSFPALNKRGYDYWGQGTQVTVSS”, “low polyreactivity”; under “QVQLVESGGGLDQAGGSIRLSCAASGFIYDGNAMGSYRQAPGKERELVAAISSGGGTTYYADSVKGRFTISRDNAKNTVYLQMNSLKPEDTAVYYCADDALSDEYDYWGQGTQVTVSS”, “low polyreactivity”.
Under “QVQLVESGGGLDQAGGSLLLSCAASGSIFRSNAMGWYRQAPRKERELVAAIDYSGTSTTYADSVKGRFSISRDNAKNTVYLQMNSLKPEDTAVYYCNADGYYRGYWSGYEYWGQGTQGTVSS” stands “low polyreactivity”; under “QVQLVESGGGLDQAGGSLLLSCPASGRTFGTYAMGLYRQAPGKERELVASITSGDSTNYADSVKGRFTISRDNAKYTVYLQMNSQKPEDTAVYYCNASGYVMVTPPKLSFNYEYWGQGTQVTVSS”, “low polyreactivity”.
With “QVQLVESGGGLDQAGGSLRLICAASGFIFEYYAMGWYRQAPGKERELVASITSGGTTYYADSVKGRFTISRDNAKNTVYLQMNSLKPEDTAVDYCAAAWRIWWYHRGEFDYWGQGTQVTVSS”, the “polyreactivity (PSR sort gate)” value is reported as “high polyreactivity”.
Under “QVQLVESGGGLDQAGGSLRLICAASGRIFKWYAMGWYRQAPGKERELVATITWSGGSTYYADSVKGRFTISRDNAQNTVYLQMNSLKAEDTAVYYCNADTWLALPCFDYWGQGTQVTVSS” stands “high polyreactivity”.
With “QVQLVESGGGLDQAGGSLRLRCAPSGRIFSYVMGWYRQAPGKERELVAAISGGVRTYYADSVKGRFTISRDNAKNTVYLQMNSLKPEDTAVYYCNADWYRKRNYWGQGTQVTVSS”, the “polyreactivity (PSR sort gate)” value is “high polyreactivity”.
As for “QVQLVESGGGLDQAGGSLRLSCAAAGRTFPYYAMGWYRQAPGKERELVATISTSGTSTYYADSVKGRFTISRDKAKNTVYLQMNSLKPEDTAVYYCNAVHRNWRQKFDYWGLGTQVTVSS”, the “polyreactivity (PSR sort gate)” value is recorded as “high polyreactivity”.
The result for “QVQLVESGGGLDQAGGSLRLSCAASASTFRRYAMGWYRQAPGKERELVAAISRSGGNTYYADSVKGRFTISRDNAKNTVYLQMNSLKPEDTAVYYCAASKLYGSPEHGYWGQGTQVTVSS” reads “high polyreactivity”; that for “QVQLVESGGGLDQAGGSLRLSCAASGFTFASYAMGWYRQAPGKERELLAAITRSGGSTYYADSVKGRFTISRDNAKNTVYLHLTSLKPEDTAVYYCATDDEQHYYLLEYYYWGQGTQVTVSS”, “low polyreactivity”.
Under “QVQLVESGGGLDQAGGSLRLSCAASGFTFTGYAMGWYRQAPGKERELVAAITRGGGSTYYADSVKGRFTISRDNAKNTVYLQMNSLKPEDTAVYYSAAQRSRLIRISSPYYGHDYWGQGTQVTVSS” stands “low polyreactivity”; under “QVQLVESGGGLDQAGGSLRLSCAASGFTLHSYALGWYRQAPGKERELVAAITTGGSTYYADSVKGRFTISRDNAKNTVYLQMNSLKPEDTAVYYCAAEDPGPYGGYVYWGQGTQVTVSS”, “low polyreactivity”.
The result for “QVQLVESGGGLDQAGGSLRLSCAASGIIFEQYAMGWYRQAPGKERELVAAISSGGTTYADSVKGRFTISRDNAKNTVYLQMNSLKPEYTAVYYCNDDLSWHGPDWSDYEYDYWGQGTQVTVSS” reads “low polyreactivity”.
As to “QVQLVESGGGLDQAGGSLRLSCAASGIILYGYTMGGYRQAPGKERELVAAINRGGSTNYADSVKGRFTISRDNAKNTVYLQMNSLKPEDTAVYYCAVDTVVASTYDYWGQGTQVTVSS”, the “polyreactivity (PSR sort gate)” value was “low polyreactivity”.
The result for “QVQLVESGGGLDQAGGSLRLSCAASGIILYRNGMGCYRQAPGKETELVAVISRRGGTYYADSVKGRFTISRDNAKNTVYLQVNSLKPEDTAVYYCAAYLSQKGNFRGGGDYWGQGTQVTVSS” reads “high polyreactivity”.
The result for “QVQLVESGGGLDQAGGSLRLSCAASGITFQGYAMGWYRQAPGKERELVAAINDSGSSTYYADSVKGRFTISRDNAKNTVYLQMNSLKPEDTAVYYCAAYLWFWGQGTQVTVSS” reads “low polyreactivity”.

These data come from the nanobody polyreactivity screen of Harvey et al. (2022).
